± gives the half width of the 95% confidence interval.
Tests used:
[1] = folding stability dG unfold (combined trypsin and chymotrypsin); higher = more stable
Method in brief: (§1)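 Designed mini-proteins (under 80 residues, no cysteine) in a PA-tagged cDNA display construct were digested with trypsin and chymotrypsin. Each protease was used at 11 concentrations (threefold dilutions) plus a no-protease condition, followed by sequencing. K50 was inferred by Bayesian fitting of sequencing counts, and unfolding free energy was derived against a sequence-predicted unfolded-state K50 and a shared folded-state K50, per protease or combined. Only designs with AlphaFold2 dimer inter-PAE above 15 were kept.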

[2] = folding stability dG unfold from chymotrypsin proteolysis; higher = more stable
Method in brief: as §1

[3] = folding stability dG unfold from trypsin proteolysis; higher = more stable
Method in brief: as §1

Row | Sequence | folding stability dG unfold [1] | folding stability dG unfold [2] | folding stability dG unfold [3]
1 | SAGGSAGGSKKKIKVIIEVEVNGKKYKIEVEAETEEEAKKKAEEAIKELKKKFPNVKIKKIKPSAGGSAGGS [r12_230_TrROS_Hall] | 3.51 ± 0.26 kcal/mol | 4.08 ± 0.25 kcal/mol | 2.38 ± 0.13 kcal/mol
2 | SAGGSAGGSAGGAIVTTTTTKAPVFAPDGTVVAEITTTTVTVILPETPPSLLPEVLERLASAGGSAGGSAGG [r7_450_JUSTAS] | 0.681 ± 0.16 kcal/mol | 0.801 ± 0.076 kcal/mol | 0.553 ± 0.06 kcal/mol
3 | SAGELKPGQIVVRTIEIDLPEEDEELREAIERGELIELELEDGSRVLMRVERKDGKLRITEVVILPRPESAG [r5_223_TrROS_Hall] | 2.73 ± 0.062 kcal/mol | 3.16 ± 0.029 kcal/mol | 1.66 ± 0.043 kcal/mol
4 | SAGKKIKLELYFEENGLKVEVEFDEETGVITVKVELKDGTRIEAKFELLPDGTLKLEIKIEKVKPGEKPSAG [r5_766_TrROS_Hall] | 3.49 ± 0.46 kcal/mol | 3.87 ± 0.27 kcal/mol | 2.94 ± 0.15 kcal/mol
5 | TIVIENASVEQIKNAIKEAIKEGKEVKIIIKASPEEKEKIIEELKKLPEIKKVEKLPNGSIKITIKAKELKS [r1_324_TrROS_Hall] | 2.32 ± 0.66 kcal/mol | 2.82 ± 0.69 kcal/mol | 1.76 ± 0.083 kcal/mol
6 | SAGGSAPLPPGAVVEIVEVRFDPETRRIEMVVKVYDANGELVATLRVELEFDPETNELTLRVELLPSAGGSA [r15_1028_TrROS_Hall] | 4.23 ± 0.14 kcal/mol | 4.5 ± 0.18 kcal/mol | 3.41 ± 0.24 kcal/mol
7 | SAGGSAGGSEKVIVVPSEEALKALEDAGIEVKKIEVFTETVTYYYPPGFPPVTETRTYLLVEVSAGGSAGGS [r12_78_TrROS_Hall] | 1.96 ± 0.083 kcal/mol | 2.26 ± 0.072 kcal/mol | 1.45 ± 0.056 kcal/mol
8 | SAGGSAGGSETRVLVRPLDGAIVIEAYRRLPDGSWVLAERIVIPTKGDDPESIARAQEVIDKLSAGGSAGGS [r12_169_TrMRF] | 4.38 ± 0.078 kcal/mol | 4.67 ± 0.087 kcal/mol | 3.76 ± 0.059 kcal/mol
9 | SAGGSAGGSAGGPKVFKFKDKIIVIYPNKKPNEEVKVVVKNPKTGKKEEFKIKIPKELLKSAGGSAGGSAGG [r7_834_TrMRF] | 0.847 ± 0.11 kcal/mol | 1.11 ± 0.13 kcal/mol | 0.512 ± 0.079 kcal/mol
10 | SAGGSAGGSSTATFTLSRLPDGTYRLTLYDPSTNKVTTEEVPASRPDEYSAVTVSSDGTVTTASAGGSAGGS [r20_11_JUSTAS] | 0.662 ± 0.095 kcal/mol | 0.338 ± 0.11 kcal/mol | 0.771 ± 0.076 kcal/mol
11 | SAGGSAGGGYAEFETTAVLPDGRVYRAKIVLSPDPDIVKIRLFSPEGEEEIELHPDDPLLLTPGSAGGSAGG [r6_926_TrMRF] | 1.62 ± 0.051 kcal/mol | 1.66 ± 0.062 kcal/mol | 1.46 ± 0.034 kcal/mol
12 | SAGGSAGGSAKKTLYKVKITKKNKNGEKIEIVVPKSEDEIKEEAKKKFGIDKIEIEPVELKSAGGSAGGSAG [r3_220_TrROS_Hall] | 0.182 ± 0.17 kcal/mol | 0.466 ± 0.19 kcal/mol | -0.305 ± 0.16 kcal/mol
13 | SMEEVKEALRKAGIDVPVTKIETEKLPDGSYKVTLTVGDKKVLTVYVPPEPPEPPVFYRTPPNGSREPVLSA [r9_442_JUSTAS] | 0.504 ± 0.18 kcal/mol | 0.528 ± 0.27 kcal/mol | 0.291 ± 0.12 kcal/mol
14 | SAGGGSTTTYSIPEGPLTLEVTTVTVGDGTVKKTVVTTPEGKRTEIPPSNPITIPPNWTVTSSVTLTSAGGS [r16_669_JUSTAS] | 0.0118 ± 0.16 kcal/mol | 0.0533 ± 0.16 kcal/mol | -0.114 ± 0.12 kcal/mol
15 | SAMELEFETDGSVSVEELIEEFKKAFPLVKEIEAEAEPIPYIPKYKVRFKIKLVPVPTPEEIEEFGKKKSAG [r14_645_TrMRF] | 1.2 ± 0.17 kcal/mol | 1.37 ± 0.21 kcal/mol | 1.02 ± 0.065 kcal/mol
16 | SAGMKIEIEAEYDPESGTVTLHIKEEPEPGEPVEVKFPIKFLKDKVEIEAETEEPLDPEEILKKIKEELSAG [r5_478_TrMRF] | 0.513 ± 0.2 kcal/mol | 0.835 ± 0.12 kcal/mol | -0.161 ± 0.14 kcal/mol
17 | SAGGSAKPEKVIVLEIEIEMTPEEVKKLVEELLKEKFGVEIERIEVEVERLPDGTLKVRVRVVIRESAGGSA [r15_138_TrROS_Hall] | 3.17 ± 0.084 kcal/mol | 2.94 ± 0.12 kcal/mol | 3.31 ± 0.13 kcal/mol
18 | SAGGMKIKVTVEVTFPDGTVRTFPVPDATSEEEVRAILAERGFGDLADVPIRITEREPVPAVPPEELLSAGG [r13_493_JUSTAS] | 1.69 ± 0.071 kcal/mol | 1.76 ± 0.043 kcal/mol | 1.68 ± 0.033 kcal/mol
19 | SPKIKIVSVSRTAGGALVALLELEDRPITLYRPLALPYILASAEIPGTNEVKTILAPSSISPEEIAKLLGSA [r9_522_TrMRF] | 1.75 ± 0.089 kcal/mol | 1.75 ± 0.09 kcal/mol | 1.59 ± 0.037 kcal/mol
20 | SAGGGFSVSTGTLTDPVTGKPITLTVTNLPDGVSRVTVTLEDGKTFEFTFPANNPPTPEQVAEAVKAFSAGG [r13_492_TrMRF] | 3.64 ± 0.04 kcal/mol | 3.631 ± 0.024 kcal/mol | 3.64 ± 0.078 kcal/mol
21 | SKTVVIKIDNRVPVPKSDKYVPIKEEFFLKVINEIKKKGYKVIITGANPDNPLAKEVAKKAKELGFEVVGSA [r9_468_TrMRF] | 0.922 ± 0.065 kcal/mol | 0.805 ± 0.082 kcal/mol | 0.992 ± 0.014 kcal/mol
